Reference: article PMC9182292

Target: human 6His-14-3-3ζ (human) (UniProt P63104)
Assay: pull-down; 6His-14-3-3ζ (0.1 mg) immobilised on Ni-NTA resin, 300 μL lysate of HEK293 cells expressing SNAP-TM reporters overnight at 4°C, 1% Triton X-100 in PBS with 25 mM imidazole; blot for the SNAP-tag, amount pulled down normalised to CT_(598-910), CT_(731-910) or untreated control; in some samples cells were treated before lysis with staurosporine (three hours) or more specific kinase inhibitors

UniProt P63104, sequence (P63104 whole entry): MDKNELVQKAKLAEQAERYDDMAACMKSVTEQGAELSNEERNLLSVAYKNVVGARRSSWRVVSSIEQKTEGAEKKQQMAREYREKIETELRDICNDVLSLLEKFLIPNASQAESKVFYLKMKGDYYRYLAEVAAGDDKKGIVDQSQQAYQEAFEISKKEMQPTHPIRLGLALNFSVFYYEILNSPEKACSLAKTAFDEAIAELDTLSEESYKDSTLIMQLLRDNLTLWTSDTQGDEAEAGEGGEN

fold of reporter pulled down compared to CT (598-910) [fold]	Substance	further results
1.39	SNAP-TM-HCN1CT reporter CT_(731-910) (from UniProt O88704 731-910) (domain or fragment)	fold of reporter pulled down from cells treated with the PKC inhibitor bisindolylmaleimide I compared to untreated control: 0.61 fold; fold of reporter pulled down from cells treated with the p38MAPK inhibitor PD 169316 compared to untreated control: 0.61 fold; fold of reporter pulled down from staurosporine-treated cells compared to untreated control: 0.26 fold
1.18	SNAP-TM-HCN1CT reporter lacking the distal 30 amino acid block with the TRIP8b-tripeptide binding site (from UniProt O88704 598-880) (domain or fragment)	
	SNAP-TM-HCN1CT reporter CT_(731-910; Δ804–814; Δ861–871) (from UniProt O88704 731-910) (domain or fragment)	fold of reporter pulled down compared to CT (731-910): 0.26 fold
0.2	SNAP-TM-HCN1CT reporter with loss of residues 803-910 (from UniProt O88704 598-802) (domain or fragment)	
	SNAP-TM-HCN1CT reporter CT_(731-910; S810A; S867A) (from UniProt O88704 731-910) (domain or fragment)	fold of reporter pulled down compared to CT (731-910): 0.33 fold
0.61	SNAP-TM-HCN1CT reporter serially truncated to lack the region containing peptide C (amino acids 850-880) (from UniProt O88704 598-850) (domain or fragment)	
0.23	SNAP-TM-HCN1CT reporter serially truncated to also lack the region containing peptide B (residues 790-820) (from UniProt O88704 598-790) (domain or fragment)	
